Where a chain is given by its changes, count along the chain named. Names may count otherwise. “And” between values parts separate entries of the source, which are not always exact repeats. Equal entries are not always repeated.
Assays:
human VEGF165 [1] = molecular target: T1, human VEGF165 (human, UniProt P15692-4 27-191); assay: capture ELISA, Fab on anti-Fd, biotinylated VEGF165
T1 construct: the isoform is VEGF165; also called huVEGF; recombinant VEGF165
Experimental: (§1) Briefly, this capture ELISA involved coating individual wells of a 96-well Maxisorp Immunoplate with approximately 50 ng of a sheep anti-human Fd antibody (Biodesign International, ME) in a carbonate buffer at pH 8.5 overnight at 4° C. The next day, the plate was blocked with 3% BSA in PBS buffer for 1 hour at room temperature. Fab supernatant was then added to the plate and incubated at room temperature for 1 hour. After washing, the biotinylated VEGF165 protein was added to the well and the mixture was incubated for 1.5 hours at room temperature. This was followed by incubation with neutravidin-horseradish peroxydase (HRP) conjugate (Pierce, Ill.) for approximately 40 minutes at room temperature. HRP activity was detected with tetra-methyl-benzidine (TMB) substrate and the reaction quenched with 0.2 M H2SO4. Plates were read at 450 nm.
(§2) The Fab concentration was determined by comparing the ELISA signals with the signals generated by the reference Fab.

human VEGF165 [2] = molecular target: T1, human VEGF165; assay: KinExA, IgG in solution, huVEGF165-coated beads
Experimental: Coated beads were then separated (spin) from unreacted huVEGF protein solution, and blocked with 1M Tris, pH 8, containing BSA at 10 mg/mL), for approximately 15 minutes at room temperature. After this, the bead slurry was spun to remove the blocking solution, and then the block step was repeated for approximately 2 hours using fresh block buffer, and stored at 4° C. until used. Prior to use, the huVEGF-coated beads were transferred to a bead vial, resuspended in approximately 27 mLs of instrument buffer (10 mM HEPES+300 mM NaCl+5 mM CaCl₂+0.05% P20+0.02% NaN₃, pH8), and affixed to the KinExA instrument. […] These concentrations of mAbs were chosen to allow each KD measurement to be made under both receptor- and KD-controlled conditions, leading to more rigorous estimations of reagent activity and affinity, respectively. […] Two-fold serial dilutions of huVEGF protein were then titrated across 9 of the tubes in each mAb series, followed by two additional 10-fold-dilutions, leaving one tube as the mAb-only, “zero” control. […] Based on theory curve simulations available through the vendor software (Sapidyne Instruments, Boise, Idaho), the mixtures were incubated 1-4 days at room temperature to allow binding to reach equilibrium. At the end of this time, signal-testing experiments were conducted to determine the appropriate run conditions for each set of measurements.

mouse VEGF164 [3] = molecular target: T2, mouse VEGF164 (mouse, UniProt Q00731-2 27-190); assay: ELISA on murine VEGF164 (Example 7), O.D. 450 nm against antibody concentration, 4-parameter fit
T2 construct: also called mVEGF164; murine VEGF164
T2 sequence (looked up): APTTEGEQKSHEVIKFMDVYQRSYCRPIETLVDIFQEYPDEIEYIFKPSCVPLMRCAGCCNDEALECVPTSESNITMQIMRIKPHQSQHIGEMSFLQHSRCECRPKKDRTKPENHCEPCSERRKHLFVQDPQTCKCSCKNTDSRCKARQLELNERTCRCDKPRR
Experimental: (§3) EC50 values were determined using non-linear regression analysis (log dose response, 4-parameter fit curves) in GraphPad Prism, version 5.01 (San Diego, Calif.).

human VEGF121 = molecular target: T3, human VEGF121 (human, UniProt P15692-9 27-147); assay: ELISA on human VEGF121 (Example 8), OD 450 nm against antibody concentration, 4-parameter fit
T3 construct: the isoform is VEGF121
T3 sequence (looked up): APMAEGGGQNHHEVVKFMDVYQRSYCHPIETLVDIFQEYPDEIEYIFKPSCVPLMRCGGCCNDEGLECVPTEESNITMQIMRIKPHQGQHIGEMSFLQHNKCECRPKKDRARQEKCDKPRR
Experimental: as §3

human VEGF165 [4] = molecular target: T1, human VEGF165; assay: VEGF165 ELISA of purified IgGs, OD450 against ug/ml
mouse VEGF164 [5] = molecular target: T2, mouse VEGF164; assay: ELISA, coated VEGF, IgG, anti-human-Fc-HRP
Experimental: (§4) The 96-well microtiter plates (Corning) were coated with 50 μl/well of human and mouse VEGF165 or VEGF121 at a concentration of 5 μg/ml in PBS at 4° C. overnight. After being washed three times with PBS containing 0.1% Tween-20 (PBST), the wells were blocked with blocking buffer (4% skimmed milk in PBS). After 1 h incubation at room temperature, the plates were washed with PBST and a 2-fold serial dilution of the antibodies (starting from 8 nM) in blocking buffer were added and incubated for 1 hour at room temperature. The antibody solution was removed by washing with PBST followed by 1 hour incubation at room temperature with a 1:3000 dilution of an anti-human-Fc-HRP antibody (Thermo Scientific) prepared in PBST. Binding was visualized with the addition of 50 μL of SureBlue Reserve TMB substrate (KPL) for 5 minutes at room temperature and the reaction was stopped by adding 50 μL of TMB Stop Solution (KPL). The absorbance at 450 nm was measured using a microtiter plate reader. The data were analyzed using Prism 5 software (GraphPad).

human VEGF165 [6] = molecular target: T1, human VEGF165; assay: ELISA, coated VEGF, IgG, anti-human-Fc-HRP
Experimental: as §4

human VEGF165 [7] = molecular target: T1, human VEGF165; assay: ELISA of Fabs at normalised concentrations on VEGF165 (Example 5), OD450 against Fab ug/ml
Experimental: as §1, §2

B1: D04 Fab (Fab, V domains shown)
VH: EVQLLESGGGLVQPGGSLRLSCAASGFTFSWYEMYWVRQAPGKGLEWVSSISPSGGWTMYADSVKGRFTISRDNSKNTLYLQMNSLRAEDTAVYYCATPLYSSDGLSAGDIWGQGTMVTVSS
VL: EIVLTQSPATLSLSPGERATLSCRASQSVHSSYLAWYQQKPGQAPRLLIYGASSRATGIPDRFSGSGSGTDFTLTISRLEPEDFAVYYCQQSYSTPSFGQGTRLEIT
notes: Point mutant of M4 tested as Fab; Fab constant parts not specified
In the case of B1, the “fold improvement in EC50 compared to germline E06 as Fabs” value (from here on “fold improvement in EC50”) (human VEGF165 [1]) is reported as greater than 10 fold.

B2: J05 IgG (antibody, V domains shown)
VH: B1 VH
VL: EIVLTQSPATLSLSPGERATLSCRASQSVSSSYLAWYQQKPGQAPRLLIYGASSRATGIPDRFSGSGSGTDFTLTISRLEPEDFAVYYCQQSYRTPSFGQGTRLEITR
B2 was tested, and the “FoldΔ KD vs. EO6-wt” value (human VEGF165 [2]) was 11 fold, the Kd (human VEGF165 [2]) was 0.22 nM and the EC50 (mouse VEGF164 [3]) was 0.046 nM. For the same binder, the EC50 (human VEGF121) was 4.97 nM.

B3: J05 Fab (Fab, V domains shown)
VH: B1 VH
VL: B1 VL with H30S, S94R
notes: Point mutant (VL S94R) of M4 tested as Fab; Fab constant parts not specified; also called point mutant J05
With B3 the “fold improvement in EC50” value (human VEGF165 [1]) was greater than 10 fold and the “fold improvement of binding over E06” value (human VEGF165 [1]) was roughly 25 fold.

B4: H1DR IgG (antibody, V domains shown)
VH: B1 VH
VL: B2 VL with S30H, S92D
With B4 the “EC50 (read off the curve)” value (human VEGF165 [4]) was roughly 0.1 µg/mL, the EC50 (mouse VEGF164 [3]) was 0.043 nM and the EC50 (human VEGF121) was 0.017 nM.

B5: E06 full length IgG (antibody, V domains shown)
VH: B1 VH
VL: B2 VL with E1D, V3Q, L4M, V86T, R94S
notes: also called antibody E06; Wt (E06)
B5 gave an EC50 (mouse VEGF164 [5]) of 0.049 nM, an EC50 (human VEGF165 [6]) of 0.048 nM and a Kd (human VEGF165 [2]) of 2.52 nM. The “EC50 (read off the curve)” value (human VEGF165 [4]) was ~0.07 µg/mL and ~0.06 µg/mL and the EC50 (mouse VEGF164 [3]) was 0.03 nM.

B6: E06 germline M4 Fab (Fab, V domains shown)
VH: B1 VH
VL: B1 VL with H30S
notes: Fab; D1E/Q3V/M4L/T86V in the VL against E06; Fab constant parts not specified; also called germline clone M4; germline E06
B6: binds (human VEGF165 [7]).

B7: I20 Fab (Fab, V domains shown)
VH: B1 VH
VL: B1 VL with H30S, S92D
notes: as for B1
For B7, the “fold improvement in EC50” value (human VEGF165 [1]) was greater than 10 fold.
